According to patent US20230381333A1 (HANMI PHARM, published 2023):
Bridge positions count the residues as written; N and C are the ends. Square brackets hold non-standard residues; d marks the D form. Ends that are not written are not given here. * marks the point of attachment. Acetyl(2-(4-imidazolyl)) = O=C(Cc1c[nH]cn1)*; Aib = CC(C)(N)C(=O)O

T1: human GIP receptor (human, UniProt P48546 22-466)
T1 sequence (looked up): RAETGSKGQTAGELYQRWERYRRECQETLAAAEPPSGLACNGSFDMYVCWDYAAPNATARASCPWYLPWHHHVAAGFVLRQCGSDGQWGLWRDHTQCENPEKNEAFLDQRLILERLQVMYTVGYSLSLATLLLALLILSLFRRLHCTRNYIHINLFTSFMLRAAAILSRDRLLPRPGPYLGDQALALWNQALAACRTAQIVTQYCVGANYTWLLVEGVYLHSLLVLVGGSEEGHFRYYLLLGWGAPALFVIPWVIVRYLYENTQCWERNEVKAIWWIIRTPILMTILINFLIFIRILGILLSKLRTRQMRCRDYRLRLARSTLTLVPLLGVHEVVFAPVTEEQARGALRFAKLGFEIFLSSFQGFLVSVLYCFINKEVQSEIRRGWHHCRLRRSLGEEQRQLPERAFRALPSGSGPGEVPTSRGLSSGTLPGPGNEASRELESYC

B1: triple agonist of SEQ ID NO: 85 (peptide)
peptide: {Acetyl(2-(4-imidazolyl))}-[Aib]QGTFTSDYSIAMDEIHQKDFVNWLLAQC
modifications: bridge 15-19
B2: triple agonist of SEQ ID NO: 86 (peptide)
peptide: {Acetyl(2-(4-imidazolyl))}-[Aib]QGTFTSDYSKYLDEKRQKEFVNWLLAQC
modifications: bridge 15-19
B3: triple agonist of SEQ ID NO: 87 (peptide)
peptide: {Acetyl(2-(4-imidazolyl))}-[Aib]QGTFTSDYSIAMDEIHQKDFVNWLLNTC
modifications: bridge 15-19
B4: triple agonist of SEQ ID NO: 88 (peptide)
peptide: {Acetyl(2-(4-imidazolyl))}-[Aib]QGTFTSDYSKYLDEKRQKEFVQWLLNTKC
modifications: bridge 15-19
B5: triple agonist of SEQ ID NO: 89 (peptide)
peptide: {Acetyl(2-(4-imidazolyl))}-[Aib]QGTFTSDYSKYLDEKRQKEFVQWLLDTKC
modifications: bridge 15-19
B6: triple agonist of SEQ ID NO: 90 (peptide)
peptide: {Acetyl(2-(4-imidazolyl))}-[Aib]EGTFTSDYSIAMDEIHQKDFVNWLLAQKC
modifications: bridge 15-19
B7: triple agonist of SEQ ID NO: 91 (peptide)
peptide: {Acetyl(2-(4-imidazolyl))}-[Aib]EGTFTSDYSIAMDEIHQKDFVDWLLAEKC
modifications: bridge 15-19
B8: triple agonist of SEQ ID NO: 92 (peptide)
peptide: {Acetyl(2-(4-imidazolyl))}-[Aib]QGTFTSDYSIAMDEIHQKDFVNWLLAQKC
modifications: bridge 15-19
B9: triple agonist of SEQ ID NO: 93 (peptide)
peptide: {Acetyl(2-(4-imidazolyl))}-[Aib]QGTFTSDYSKYLDEKRQKEFVNWLLAQKC
modifications: bridge 15-19
B10: triple agonist of SEQ ID NO: 94 (peptide)
peptide: {Acetyl(2-(4-imidazolyl))}-[Aib]QGTFTSDYSIAMDEIHQKDFVNWLLNTKC
modifications: bridge 15-19
B11: triple agonist of SEQ ID NO: 10 (peptide)
peptide: H[Aib]QGTFTSDVSKYLDGQAAQEFVAWLLAGGGPSSGAPPPSC
B12: triple agonist of SEQ ID NO: 95 (peptide)
peptide: Y[Aib]QGTFTSDYSKYLDEKRAKEFVQWLLCHHPSSGQPPPS
modifications: bridge 16-20
B13: triple agonist of SEQ ID NO: 96 (peptide)
peptide: Y[Aib]QGTFTSDYSKYLDEKRAKEFVQWLLDHCPSSGQPPPS
modifications: bridge 16-20
B14: triple agonist of SEQ ID NO: 97 (peptide)
peptide: Y[Aib]QGTFTSDYSKYLDEKRAKEFVQWLLDCHPSSGQPPPS
modifications: bridge 16-20
B15: triple agonist of SEQ ID NO: 98 (peptide)
peptide: Y[Aib]QGTFTSDYSKALDEKAAKEFVNWLLDHHPSSGQPPPSC
modifications: bridge 16-20
B16: triple agonist of SEQ ID NO: 99 (peptide)
peptide: Y[Aib]QGTFTSDYSKALDEKAAKDFVNWLLDHHPSSGQPPPSC
modifications: bridge 16-20
B17: triple agonist of SEQ ID NO: 100 (peptide)
peptide: Y[Aib]QGTFTSDYSKALDEKAAKEFVQWLLDQHPSSGQPPPSC
modifications: bridge 16-20
B18: triple agonist of SEQ ID NO: 101 (peptide)
peptide: Y[Aib]QGTFTSDYSKALDEKAAKEFVNWLLDQHPSSGQPPPSC
modifications: bridge 16-20
B19: triple agonist of SEQ ID NO: 102 (peptide)
peptide: Y[Aib]QGTFTSDYSKALDEKAAKDFVNWLLDQHPSSGQPPPSC
modifications: bridge 16-20
B20: triple agonist of SEQ ID NO: 11 (peptide)
peptide: [Acetyl(2-(4-imidazolyl))]GEGTFTSDLSKYLDSRRQQLFVQWLKAGGPSSGAPPPSHG
B21: triple agonist of SEQ ID NO: 12 (peptide)
peptide: [Acetyl(2-(4-imidazolyl))]GEGTFISDLSKYMDEQAVQLFVEWLMAGGPSSGAPPPSHG
B22: triple agonist of SEQ ID NO: 13 (peptide)
peptide: [Acetyl(2-(4-imidazolyl))]GEGTFISDYSIQLDEIAVQDFVEWLLAQKPSSGAPPPSHG
B23: triple agonist of SEQ ID NO: 2 (peptide)
peptide: H[Aib]QGTFTSDVSSYLDGQAQKEFIAWLVKGC
B24: triple agonist of SEQ ID NO: 14 (peptide)
peptide: [Acetyl(2-(4-imidazolyl))]GQGTFTSDYSIQLDEIAVRDFVEWLKNGGPSSGAPPPSHG
B25: triple agonist of SEQ ID NO: 16 (peptide)
peptide: [Acetyl(2-(4-imidazolyl))]GQGTFTSDLSKQMDSEAQQLFIEWLKNGGPSSGAPPPSHG
B26: triple agonist of SEQ ID NO: 17 (peptide)
peptide: [Acetyl(2-(4-imidazolyl))]GQGTFTSDLSKQMDEERAREFIEWLLAQKPSSGAPPPSHG
B27: triple agonist of SEQ ID NO: 18 (peptide)
peptide: [Acetyl(2-(4-imidazolyl))]GQGTFTSDLSKQMDSERAREFIEWLKNTGPSSGAPPPSHG
B28: triple agonist of SEQ ID NO: 19 (peptide)
peptide: [Acetyl(2-(4-imidazolyl))]GQGTFTSDLSIQYDSEHQRDFIEWLKDTGPSSGAPPPSHG

Target: human GLP-1 receptor (human, UniProt P43220 24-463)
Assay: cell-based or functional assay

First: B1
Second: B2
The “In vitro activity compared to native-type peptide (%), vs GLP-1” value (shortened to “In vitro activity … (%), vs GLP-1”) of the first is lower: 4.3% for the first, 28.4% for the second.

Compared with B3, B4 is higher in “In vitro activity … (%), vs GLP-1” value: 0.9% for the first, 9.6% for the second.

Going from B5 to B6, the “In vitro activity … (%), vs GLP-1” value rises from 7.1% to 7.4%.

Going from B7 to B8, the “In vitro activity … (%), vs GLP-1” value falls from 31.9% to 0.8%.

First: B9
Second: B10
The “In vitro activity … (%), vs GLP-1” value of the first is higher: 5.7% for the first, 0.5% for the second.

Compared with B11, B12 is lower in “In vitro activity … (%), vs GLP-1” value: 46% for the first, 2.1% for the second.

Going from B13 to B14, the “In vitro activity … (%), vs GLP-1” value falls from 34.4% to 10.5%.

Compared with B15, B16 is lower in “In vitro activity … (%), vs GLP-1” value: 28.1% for the first, 20.9% for the second.

First: B17
Second: B18
The “In vitro activity … (%), vs GLP-1” value of the first is higher: 42.2% for the first, 23.2% for the second.

Compared with B19, B20 is lower in “In vitro activity … (%), vs GLP-1” value: 23.3% for the first, 1.4% for the second.

First: B21
Second: B22
The “In vitro activity … (%), vs GLP-1” value of the first is higher: 0.4% for the first, less than 0.1% for the second.

Compared with B23, B24 is higher in “In vitro activity … (%), vs GLP-1” value: 5.9% for the first, 28% for the second.

First: B25
Second: B26
The “In vitro activity … (%), vs GLP-1” value of the first is higher: 2.1% for the first, 0.2% for the second.

B27 and B28 cannot be ordered by “In vitro activity … (%), vs GLP-1” value: less than 0.1% for the first, less than 0.1% for the second.

Target: human GCG receptor (human, UniProt P47871 26-477)
Assay: cell-based or functional assay

Sequence of human GCG receptor (P47871 26-477): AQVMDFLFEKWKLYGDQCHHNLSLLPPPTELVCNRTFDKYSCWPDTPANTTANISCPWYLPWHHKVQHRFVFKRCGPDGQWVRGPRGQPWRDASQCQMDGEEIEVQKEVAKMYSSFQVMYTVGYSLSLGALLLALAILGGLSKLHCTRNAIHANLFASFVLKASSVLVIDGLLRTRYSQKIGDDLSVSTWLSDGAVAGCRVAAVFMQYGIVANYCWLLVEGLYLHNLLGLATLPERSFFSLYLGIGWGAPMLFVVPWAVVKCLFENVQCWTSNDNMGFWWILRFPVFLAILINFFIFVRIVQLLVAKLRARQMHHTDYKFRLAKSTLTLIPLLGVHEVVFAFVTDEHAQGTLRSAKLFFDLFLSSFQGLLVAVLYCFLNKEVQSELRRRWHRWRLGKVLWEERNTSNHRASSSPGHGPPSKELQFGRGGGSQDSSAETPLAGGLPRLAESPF

Going from B1 to B2, the “In vitro activity compared to native-type peptide (%), vs Glucagon” value (from here on “In vitro activity … (%), vs Glucagon”) rises from less than 0.1% to 0.4%.

Going from B3 to B4, the “In vitro activity … (%), vs Glucagon” value rises from less than 0.1% to 0.3%.

First: B5
Second: B6
The “In vitro activity … (%), vs Glucagon” value of the first is higher: 0.7% for the first, less than 0.1% for the second.

Compared with B7, B8 is lower in “In vitro activity … (%), vs Glucagon” value: 16.8% for the first, less than 0.1% for the second.

First: B9
Second: B10
The “In vitro activity … (%), vs Glucagon” value of the first is higher: 0.3% for the first, less than 0.1% for the second.

Compared with B11, B12 is higher in “In vitro activity … (%), vs Glucagon” value: less than 0.1% for the first, 0.4% for the second.

First: B13
Second: B14
The “In vitro activity … (%), vs Glucagon” value of the first is higher: 195% for the first, 62.8% for the second.

Compared with B15, B16 is higher in “In vitro activity … (%), vs Glucagon” value: 8.2% for the first, 14.9% for the second.

Compared with B17, B18 is higher in “In vitro activity … (%), vs Glucagon” value: 12.7% for the first, 13.9% for the second.

First: B19
Second: B20
The “In vitro activity … (%), vs Glucagon” value of the first is higher: 29.5% for the first, less than 0.1% for the second.

B21 and B22 cannot be ordered by “In vitro activity … (%), vs Glucagon” value: less than 0.1% for the first, less than 0.1% for the second.

B23 and B24 cannot be ordered by “In vitro activity … (%), vs Glucagon” value: less than 0.1% for the first, less than 0.1% for the second.

B25 and B26 cannot be ordered by “In vitro activity … (%), vs Glucagon” value: less than 0.1% for the first, less than 0.1% for the second.

B27 and B28 cannot be ordered by “In vitro activity … (%), vs Glucagon” value: less than 0.1% for the first, less than 0.1% for the second.

Target: T1, human GIP receptor
Assay: cell-based or functional assay

First: B1
Second: B2
The “In vitro activity compared to native-type peptide (%), vs GIP” value (“In vitro activity … (%), vs GIP” below) of the first is higher: 0.3% for the first, 0.2% for the second.

B3 and B4 cannot be ordered by “In vitro activity … (%), vs GIP” value: less than 0.1% for the first, less than 0.1% for the second.

B5 and B6 cannot be ordered by “In vitro activity … (%), vs GIP” value: less than 0.1% for the first, less than 0.1% for the second.

Going from B7 to B8, the “In vitro activity … (%), vs GIP” value rises from 0.3% to 0.4%.

Going from B9 to B10, the “In vitro activity … (%), vs GIP” value falls from 0.7% to less than 0.1%.

B11 and B12 cannot be ordered by “In vitro activity … (%), vs GIP” value: less than 0.1% for the first, less than 0.1% for the second.

Compared with B13, B14 is lower in “In vitro activity … (%), vs GIP” value: 5.2% for the first, 2.6% for the second.

Going from B15 to B16, the “In vitro activity … (%), vs GIP” value rises from 47.1% to 57.7%.

Going from B17 to B18, the “In vitro activity … (%), vs GIP” value falls from 118% to 40.1%.

Compared with B19, B20 is lower in “In vitro activity … (%), vs GIP” value: 58% for the first, less than 0.1% for the second.

B21 and B22 cannot be ordered by “In vitro activity … (%), vs GIP” value: less than 0.1% for the first, less than 0.1% for the second.

B23 and B24 cannot be ordered by “In vitro activity … (%), vs GIP” value: less than 0.1% for the first, less than 0.1% for the second.

B25 and B26 cannot be ordered by “In vitro activity … (%), vs GIP” value: less than 0.1% for the first, less than 0.1% for the second.

B27 and B28 cannot be ordered by “In vitro activity … (%), vs GIP” value: less than 0.1% for the first, less than 0.1% for the second.
